This data set deals with the molecule itself. As to the kind of experiment: crystal structure.

B1: SeMet-labeled V32M/L84M ORF8 double mutant (domain or fragment)
chain: QECSLQSCTQHQPYMVDDPCPIHFYSKWYIRVGARKSAPLIELCVDEAGSKSPIQYIDIGNYTVSCMPFTINCQEPKLGSLVVRCSFYEDFLEYHDVRVVLDFI
modifications: selenomethionine (SeMet-labeled)
notes: also called ORF8 V32M, L84M double-mutant; SeMet-labeled ORF8 double-mutant protein
B1: the binding result is “binds”.
